± gives the standard deviation of the averaged measurements.
Columns and labels:
Saccharomyces cerevisiae [1] = test: protein stability index of tFT-peptide fusion (C-terminal peptide) (PSI (0-1 scale)); higher = more stable (slower turnover)
Method: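 MPS profiling in S. cerevisiae of the tFT-X12 degron library: putative degron peptides plus stable controls, 12 aa, fused to the C-terminus of a sfGFP-mCherry timer. Cells are FACS-sorted into 8 mCherry/sfGFP bins and deep-sequenced. PSI runs from 0 (unstable) to 1 (stable). Backgrounds are wild type, das1Δ and doa10Δ at 30 °C, and wild type, das1Δ, cdc34-1 and cdc53-1 at 37 °C; 2-3 technical replicates each.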

Saccharomyces cerevisiae [2] = test: as above; conditions: genetic background: wild type; temperature: 30 C
[3] = genetic background: cdc34-1, temperature: 37 C
[4] = genetic background: cdc53-1, temperature: 37 C
[5] = genetic background: das1 deletion, temperature: 30 C
[6] = genetic background: das1 deletion, temperature: 37 C
[7] = genetic background: doa10 deletion, temperature: 30 C
[8] = genetic background: wild type, temperature: 30 C
[9] = genetic background: wild type, temperature: 37 C
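Further: PSI is a weighted mean of sequencing reads over stability bins, variants kept only with over 10 reads, mCherry proximal and sfGFP distal, peptide attached via GGGS linker.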

Row | Sequence | protein stability index (Saccharomyces cerevisiae [2]) | further results
1 | APLPPPPASVPP | – | protein stability index (Saccharomyces cerevisiae [1]; [3]): 0.656 ± 0.076; protein stability index (Saccharomyces cerevisiae [1]; [4]): 0.7014 ± 0.0041; protein stability index (Saccharomyces cerevisiae [1]; [5]): 0.672 ± 0.015; protein stability index (Saccharomyces cerevisiae [1]; [6]): 0.711 ± 0.014; protein stability index (Saccharomyces cerevisiae [1]; [7]): 0.65 ± 0.014; protein stability index (Saccharomyces cerevisiae [1]; [8]): 0.649 ± 0.03; protein stability index (Saccharomyces cerevisiae [1]; [9]): 0.691 ± 0.0089
2 | APPHPPPATFLS | – | protein stability index (Saccharomyces cerevisiae [1]; [3]): 0.643 ± 0.014; protein stability index (Saccharomyces cerevisiae [1]; [4]): 0.732 ± 0.022; protein stability index (Saccharomyces cerevisiae [1]; [5]): 0.685 ± 0.019; protein stability index (Saccharomyces cerevisiae [1]; [6]): 0.721 ± 0.0092; protein stability index (Saccharomyces cerevisiae [1]; [7]): 0.326 ± 0.032; protein stability index (Saccharomyces cerevisiae [1]; [8]): 0.357 ± 0.026; protein stability index (Saccharomyces cerevisiae [1]; [9]): 0.574 ± 0.012
3 | DFWCIIVIFLFR | – | protein stability index (Saccharomyces cerevisiae [1]; [3]): 0.221 ± 0.004; protein stability index (Saccharomyces cerevisiae [1]; [4]): 0.348 ± 0.027; protein stability index (Saccharomyces cerevisiae [1]; [5]): 0.248 ± 0.015; protein stability index (Saccharomyces cerevisiae [1]; [6]): 0.393 ± 0.015; protein stability index (Saccharomyces cerevisiae [1]; [7]): 0.225 ± 0.0077; protein stability index (Saccharomyces cerevisiae [1]; [8]): 0.251 ± 0.031; protein stability index (Saccharomyces cerevisiae [1]; [9]): 0.34 ± 0.0045
4 | EKKKKKRKNKIK | – | protein stability index (Saccharomyces cerevisiae [1]; [3]): 0.691 ± 0.0098; protein stability index (Saccharomyces cerevisiae [1]; [4]): 0.727 ± 0.037; protein stability index (Saccharomyces cerevisiae [1]; [5]): 0.655 ± 0.024; protein stability index (Saccharomyces cerevisiae [1]; [6]): 0.7221 ± 0.0038; protein stability index (Saccharomyces cerevisiae [1]; [7]): 0.649 ± 0.016; protein stability index (Saccharomyces cerevisiae [1]; [8]): 0.652 ± 0.025; protein stability index (Saccharomyces cerevisiae [1]; [9]): 0.661 ± 0.028
5 | FHSALIAIAAYV | – | protein stability index (Saccharomyces cerevisiae [1]; [3]): 0.135 ± 0.012; protein stability index (Saccharomyces cerevisiae [1]; [4]): 0.128 ± 0.032; protein stability index (Saccharomyces cerevisiae [1]; [5]): 0.201 ± 0.029; protein stability index (Saccharomyces cerevisiae [1]; [6]): 0.2396 ± 0.00086; protein stability index (Saccharomyces cerevisiae [1]; [7]): 0.162 ± 0.024; protein stability index (Saccharomyces cerevisiae [1]; [8]): 0.202 ± 0.016; protein stability index (Saccharomyces cerevisiae [1]; [9]): 0.217 ± 0.0052
6 | LSLLILFVLLSF | – | protein stability index (Saccharomyces cerevisiae [1]; [3]): 0.444 ± 0.014; protein stability index (Saccharomyces cerevisiae [1]; [4]): 0.476 ± 0.016; protein stability index (Saccharomyces cerevisiae [1]; [5]): 0.355 ± 0.042; protein stability index (Saccharomyces cerevisiae [1]; [6]): 0.449 ± 0.023; protein stability index (Saccharomyces cerevisiae [1]; [7]): 0.3914 ± 0.00083; protein stability index (Saccharomyces cerevisiae [1]; [8]): 0.385 ± 0.024; protein stability index (Saccharomyces cerevisiae [1]; [9]): 0.463 ± 0.039
7 | LVGYSVFVLFFS | – | protein stability index (Saccharomyces cerevisiae [1]; [3]): 0.282 ± 0.015; protein stability index (Saccharomyces cerevisiae [1]; [4]): 0.5056 ± 0.0012; protein stability index (Saccharomyces cerevisiae [1]; [5]): 0.253 ± 0.034; protein stability index (Saccharomyces cerevisiae [1]; [6]): 0.498 ± 0.012; protein stability index (Saccharomyces cerevisiae [1]; [7]): 0.21 ± 0.0089; protein stability index (Saccharomyces cerevisiae [1]; [8]): 0.226 ± 0.048; protein stability index (Saccharomyces cerevisiae [1]; [9]): 0.426 ± 0.037
8 | VWAWGACPRGEG | 0.6429 ± 0.0016 | –
9 | VWCAFNLLFARQ | 0.574 ± 0.032 | –
10 | VWGIIQTDRMGR | 0.744 ± 0.017 | –
11 | VWGRGWVVGWFL | 0.612 ± 0.066 | –
12 | VWGRLGGGVGRA | 0.719 ± 0.069 | –
13 | VWGRQGGGVGRA | 0.715 ± 0.088 | –
14 | VWGVFGGCWCGV | 0.693 ± 0.021 | –
15 | VWSWGDGGGAVV | 0.734 ± 0.029 | –
16 | VWTATLRPPGHP | 0.655 ± 0.068 | –
17 | VWVGGGRRDPKY | 0.735 ± 0.075 | –
18 | VWVGGVSVGFFG | 0.716 ± 0.061 | –
19 | VWVSRPWGRGGL | 0.681 ± 0.038 | –
20 | VYACGVDFNVRG | 0.678 ± 0.094 | –
21 | VYRLYPLSPLLY | 0.679 ± 0.12 | –
22 | VYVLTKSSMGRN | 0.692 ± 0.048 | –
23 | WADLIPDSFGDM | 0.741 ± 0.059 | –
24 | WADYLWFGLNGG | 0.712 ± 0.028 | –

Row | Sequence | protein stability index (Saccharomyces cerevisiae [2]) | further results
25 | WAGGGGGRVCGW | 0.799 ± 0.11 | –
26 | WAGGSGRRIGCR | 0.712 ± 0.0089 | –
27 | WARSLPHPISRR | 0.803 ± 0.064 | –
28 | WASKVGSYICAE | 0.671 ± 0.02 | –
29 | WCFSLGYFFFCR | 0.585 ± 0.05 | –
30 | WCFVGLVNTCRI | 0.617 ± 0.025 | –
31 | WCFVPLSFRLDS | 0.71 ± 0.025 | –
32 | WCGGGGVACLLL | 0.693 ± 0.0086 | –
33 | WCGTLVDRGCSL | 0.554 ± 0.026 | –
34 | WCQREPSSKYKI | 0.578 ± 0.054 | –
35 | WDGWPTGSGGTG | 0.72654 ± 0.00043 | –
36 | WECGRVSVIRRC | 0.594 ± 0.019 | –
37 | WESWGPDWLCVG | 0.769 ± 0.035 | –
38 | WFGSGGRGWREF | 0.713 ± 0.048 | –
39 | WFKSIREGKGSR | 0.68 ± 0.044 | –
40 | WFNAGAGDLGSV | 0.709 ± 0.033 | –
41 | WFPPLPPPPPPS | 0.734 ± 0.028 | –
42 | WGCVGVGGLFSG | 0.665 ± 0.017 | –
43 | WGECGVWVGLWG | 0.709 ± 0.051 | –
44 | WGGGVGWSGACL | 0.734 ± 0.02 | –
45 | WGGRSGTWGLVG | 0.803 ± 0.1 | –
46 | WGGTGALGTVRW | 0.759 ± 0.028 | –
47 | WGGVGLRGGWDG | 0.713 ± 0.047 | –
48 | WGGVGRLAGLLG | 0.703 ± 0.021 | –

Row | Sequence | protein stability index (Saccharomyces cerevisiae [2]) | further results
49 | WGGYLISLNLYN | 0.561 ± 0.025 | –
50 | WGHFVGVWGRAG | 0.664 ± 0.075 | –
51 | WGLGVFALKTLL | 0.623 ± 0.034 | –
52 | WGRAGPSSPCSC | 0.709 ± 0.088 | –
53 | WGRGWWEMVGRT | 0.686 ± 0.0074 | –
54 | WGRIVRDFHCGG | 0.614 ± 0.0083 | –
55 | WGRQSERILRST | 0.606 ± 0.046 | –
56 | WGRRWRCAGRGG | 0.656 ± 0.056 | –
57 | WGSSCQAEDVTN | 0.737 ± 0.016 | –
58 | WGTGGGLGVGHV | 0.726 ± 0.093 | –
59 | WGVCGVFLCLGV | 0.572 ± 0.11 | –
60 | WGVGVGGRMRPH | 0.707 ± 0.044 | –
61 | WGWSLARRFLSV | 0.555 ± 0.037 | –
62 | WGYRLRGGGGQG | 0.701 ± 0.064 | –
63 | WHFTPPPPPTSP | 0.715 ± 0.011 | –
64 | WHGLLEWLAWRT | 0.736 ± 0.078 | –
65 | WHRTGPFCGFPC | 0.766 ± 0.17 | –
66 | WIIRATCAGVSL | 0.528 ± 0.032 | –
67 | WKETGRGTISHK | 0.699 ± 0.013 | –
68 | WKEVGGSRILLV | 0.6033 ± 0.0031 | –
69 | WKKYTKTKKKKN | 0.689 ± 0.021 | –
70 | WLDDCVRVGMRI | 0.6722 ± 0.0033 | –

From the supplement of paper PMC10724198
